Source: the supplement of paper PMC9112550, “Optimization of the antimicrobial peptide Bac7 by deep mutational scanning” (BMC Biology, 2022)

Test system: Escherichia coli TOP10
Assay: shrunken log2 fold change of peptide-encoding DNA abundance (4.5 h post-induction vs induction); higher = less antimicrobial activity (less host growth inhibition)
Settings: time post-induction: 4.5 h; library: site-saturation at positions 5, 18, 19, 20
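Also: peptides expressed intracellularly from a pBAD plasmid library in pooled LB shake-flask culture, induced with 0.3% L-arabinose, DNA abundance read by NGS, three biological replicates, DESeq2 with apeglm shrinkage.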

RRIRCRPPRLPRPRPRPKRHPRP
shrunken log2 fold change: 0.341

RRIRRRPPRLPRPRPRPPVWPRP
shrunken log2 fold change: 0.328

RRIRDRPPRLPRPRPRPQPPPRP
shrunken log2 fold change: 0.424

RRIRQRPPRLPRPRPRPIMYPRP
shrunken log2 fold change: -0.0857

RRIRVRPPRLPRPRPRPDWSPRP
shrunken log2 fold change: -0.316

RRIRDRPPRLPRPRPRPACKPRP
shrunken log2 fold change: 0.00774

RRIRSRPPRLPRPRPRPCWKPRP
shrunken log2 fold change: -0.169

RRIRWRPPRLPRPRPRPRGPPRP
shrunken log2 fold change: 0.931

RRIRSRPPRLPRPRPRPKHAPRP
shrunken log2 fold change: 0.143

RRIRCRPPRLPRPRPRPYIEPRP
shrunken log2 fold change: -1.03

RRIRFRPPRLPRPRPRPYSCPRP
shrunken log2 fold change: -0.388

RRIRSRPPRLPRPRPRPLSGPRP
shrunken log2 fold change: -0.0801

RRIRVRPPRLPRPRPRPCEQPRP
shrunken log2 fold change: 0.211

RRIRARPPRLPRPRPRPMEPPRP
shrunken log2 fold change: 0.0999

RRIRPRPPRLPRPRPRPDWFPRP
shrunken log2 fold change: 0.0805

RRIRWRPPRLPRPRPRPYSLPRP
shrunken log2 fold change: -0.201

RRIRERPPRLPRPRPRPGTEPRP
shrunken log2 fold change: -0.049

RRIRSRPPRLPRPRPRPSCYPRP
shrunken log2 fold change: -0.511

RRIRNRPPRLPRPRPRPRVCPRP
shrunken log2 fold change: 0.205

RRIRYRPPRLPRPRPRPWAEPRP
shrunken log2 fold change: 0.0276

RRIRGRPPRLPRPRPRPRWEPRP
shrunken log2 fold change: 0.946

RRIRYRPPRLPRPRPRPRCTPRP
shrunken log2 fold change: -0.407

RRIRPRPPRLPRPRPRPMKEPRP
shrunken log2 fold change: 0.104

RRIRERPPRLPRPRPRPTFNPRP
shrunken log2 fold change: -0.24

RRIRRRPPRLPRPRPRPHDLPRP
shrunken log2 fold change: 0.22

RRIRARPPRLPRPRPRPDYCPRP
shrunken log2 fold change: -0.17

RRIRKRPPRLPRPRPRPGFAPRP
shrunken log2 fold change: 0.718

RRIRSRPPRLPRPRPRPMKWPRP
shrunken log2 fold change: 0.053

RRIRARPPRLPRPRPRPWVKPRP
shrunken log2 fold change: 0.0825

RRIRERPPRLPRPRPRPPAEPRP
shrunken log2 fold change: 0.758

RRIRSRPPRLPRPRPRPSCHPRP
shrunken log2 fold change: -0.245

RRIRQRPPRLPRPRPRPGKCPRP
shrunken log2 fold change: 0.0125

RRIRCRPPRLPRPRPRPSNYPRP
shrunken log2 fold change: -0.348

RRIRCRPPRLPRPRPRPPIHPRP
shrunken log2 fold change: -0.248

RRIRLRPPRLPRPRPRPAIKPRP
shrunken log2 fold change: -0.139

RRIRYRPPRLPRPRPRPADDPRP
shrunken log2 fold change: -0.0179

RRIRFRPPRLPRPRPRPLFCPRP
shrunken log2 fold change: -0.462

RRIRRRPPRLPRPRPRPAHPPRP
shrunken log2 fold change: 0.769

RRIRARPPRLPRPRPRPSLRPRP
shrunken log2 fold change: 0.109

RRIRPRPPRLPRPRPRPLGVPRP
shrunken log2 fold change: 0.361

RRIRERPPRLPRPRPRPIEYPRP
shrunken log2 fold change: -0.207

RRIRERPPRLPRPRPRPENFPRP
shrunken log2 fold change: -0.195

RRIRKRPPRLPRPRPRPEQYPRP
shrunken log2 fold change: 0.104

RRIRQRPPRLPRPRPRPVPWPRP
shrunken log2 fold change: -0.01

RRIRARPPRLPRPRPRPDWLPRP
shrunken log2 fold change: 0.432

RRIRWRPPRLPRPRPRPHRYPRP
shrunken log2 fold change: -0.15

RRIRFRPPRLPRPRPRPLYQPRP
shrunken log2 fold change: -0.374

RRIRERPPRLPRPRPRPICDPRP
shrunken log2 fold change: -0.221

RRIRIRPPRLPRPRPRPSEAPRP
shrunken log2 fold change: -0.0351

RRIRYRPPRLPRPRPRPNHAPRP
shrunken log2 fold change: -0.142

RRIRERPPRLPRPRPRPEQMPRP
shrunken log2 fold change: -6.54e-05

RRIRPRPPRLPRPRPRPDYCPRP
shrunken log2 fold change: -0.367

RRIRPRPPRLPRPRPRPFEYPRP
shrunken log2 fold change: -0.0601

RRIRQRPPRLPRPRPRPHVRPRP
shrunken log2 fold change: -0.00149

RRIRTRPPRLPRPRPRPCHDPRP
shrunken log2 fold change: -0.215

RRIRVRPPRLPRPRPRPQSQPRP
shrunken log2 fold change: -0.214

RRIRIRPPRLPRPRPRPENTPRP
shrunken log2 fold change: -0.397

RRIRIRPPRLPRPRPRPECMPRP
shrunken log2 fold change: -0.428

RRIRHRPPRLPRPRPRPGVRPRP
shrunken log2 fold change: 0.175

RRIRKRPPRLPRPRPRPWMPPRP
shrunken log2 fold change: 0.0548

RRIRHRPPRLPRPRPRPLYHPRP
shrunken log2 fold change: -0.198

RRIRERPPRLPRPRPRPTRKPRP
shrunken log2 fold change: 0.0197

RRIRKRPPRLPRPRPRPEDIPRP
shrunken log2 fold change: -0.00208

RRIRCRPPRLPRPRPRPVMCPRP
shrunken log2 fold change: -0.127

RRIRIRPPRLPRPRPRPISNPRP
shrunken log2 fold change: -0.000216

RRIRQRPPRLPRPRPRPAWYPRP
shrunken log2 fold change: -0.0125

RRIRDRPPRLPRPRPRPNQSPRP
shrunken log2 fold change: -0.527

RRIRNRPPRLPRPRPRPPLDPRP
shrunken log2 fold change: 0.0724

RRIRIRPPRLPRPRPRPRKWPRP
shrunken log2 fold change: 0.0966

RRIRWRPPRLPRPRPRPEVYPRP
shrunken log2 fold change: -0.0423

RRIRWRPPRLPRPRPRPIKQPRP
shrunken log2 fold change: -0.00809

RRIRTRPPRLPRPRPRPTNAPRP
shrunken log2 fold change: 0.209

RRIRFRPPRLPRPRPRPLKAPRP
shrunken log2 fold change: 0.693

RRIRSRPPRLPRPRPRPHGLPRP
shrunken log2 fold change: -0.0195

RRIRTRPPRLPRPRPRPTLEPRP
shrunken log2 fold change: 0.0319

RRIRSRPPRLPRPRPRPTPYPRP
shrunken log2 fold change: -0.26

RRIRPRPPRLPRPRPRPWYFPRP
shrunken log2 fold change: -1.02

RRIRERPPRLPRPRPRPCCFPRP
shrunken log2 fold change: -0.248

RRIRQRPPRLPRPRPRPKHTPRP
shrunken log2 fold change: -0.224

RRIRMRPPRLPRPRPRPRGDPRP
shrunken log2 fold change: 1.73

RRIRSRPPRLPRPRPRPASAPRP
shrunken log2 fold change: 0.243

RRIRPRPPRLPRPRPRPYDYPRP
shrunken log2 fold change: -0.355

RRIRGRPPRLPRPRPRPMLYPRP
shrunken log2 fold change: 0.322

RRIRGRPPRLPRPRPRPSLDPRP
shrunken log2 fold change: 0.607

RRIRARPPRLPRPRPRPLLHPRP
shrunken log2 fold change: 0.264

RRIRWRPPRLPRPRPRPSTDPRP
shrunken log2 fold change: 0.0398

RRIRYRPPRLPRPRPRPKQQPRP
shrunken log2 fold change: -0.0891

RRIRIRPPRLPRPRPRPEPGPRP
shrunken log2 fold change: 0.253

RRIRWRPPRLPRPRPRPDFDPRP
shrunken log2 fold change: 0.0791

RRIRCRPPRLPRPRPRPNGLPRP
shrunken log2 fold change: -0.132

RRIRARPPRLPRPRPRPRTFPRP
shrunken log2 fold change: 0.287

RRIRHRPPRLPRPRPRPIMFPRP
shrunken log2 fold change: -0.439

RRIRLRPPRLPRPRPRPTLQPRP
shrunken log2 fold change: 0.0553

RRIRARPPRLPRPRPRPEEWPRP
shrunken log2 fold change: 0.0407

RRIRYRPPRLPRPRPRPANHPRP
shrunken log2 fold change: -0.463

RRIRPRPPRLPRPRPRPGCDPRP
shrunken log2 fold change: 0.309

RRIRYRPPRLPRPRPRPMTKPRP
shrunken log2 fold change: 0.0153

RRIRVRPPRLPRPRPRPAHLPRP
shrunken log2 fold change: -0.0953

RRIRVRPPRLPRPRPRPEYRPRP
shrunken log2 fold change: -0.115

RRIRARPPRLPRPRPRPWSRPRP
shrunken log2 fold change: -0.151

RRIRWRPPRLPRPRPRPREIPRP
shrunken log2 fold change: 0.426

RRIRLRPPRLPRPRPRPCQIPRP
shrunken log2 fold change: -0.102

RRIRFRPPRLPRPRPRPERKPRP
shrunken log2 fold change: 0.0154

RRIRCRPPRLPRPRPRPNWDPRP
shrunken log2 fold change: -0.185

RRIRMRPPRLPRPRPRPWIFPRP
shrunken log2 fold change: 0.0735

RRIRGRPPRLPRPRPRPHRQPRP
shrunken log2 fold change: 0.0397

RRIRQRPPRLPRPRPRPEPNPRP
shrunken log2 fold change: -0.0098

RRIRMRPPRLPRPRPRPLHNPRP
shrunken log2 fold change: -0.127

RRIRHRPPRLPRPRPRPDCAPRP
shrunken log2 fold change: 0.196

RRIRIRPPRLPRPRPRPNSYPRP
shrunken log2 fold change: -0.084

RRIRDRPPRLPRPRPRPCPHPRP
shrunken log2 fold change: -0.228

RRIRWRPPRLPRPRPRPHMPPRP
shrunken log2 fold change: -0.768

RRIRSRPPRLPRPRPRPLQQPRP
shrunken log2 fold change: 0.553

RRIRDRPPRLPRPRPRPVSPPRP
shrunken log2 fold change: -0.134

RRIRERPPRLPRPRPRPVIEPRP
shrunken log2 fold change: -0.201

RRIRDRPPRLPRPRPRPTWVPRP
shrunken log2 fold change: 0.323

RRIRARPPRLPRPRPRPCTAPRP
shrunken log2 fold change: -0.147

RRIRTRPPRLPRPRPRPAHHPRP
shrunken log2 fold change: -0.0336

RRIRHRPPRLPRPRPRPKKFPRP
shrunken log2 fold change: -0.123

RRIRNRPPRLPRPRPRPSMVPRP
shrunken log2 fold change: -0.508

RRIRCRPPRLPRPRPRPFIFPRP
shrunken log2 fold change: -0.425

RRIRLRPPRLPRPRPRPIKIPRP
shrunken log2 fold change: 0.0507

RRIRIRPPRLPRPRPRPPVMPRP
shrunken log2 fold change: 0.126

RRIRWRPPRLPRPRPRPQPMPRP
shrunken log2 fold change: 0.145

RRIRPRPPRLPRPRPRPISWPRP
shrunken log2 fold change: -0.00365

RRIRLRPPRLPRPRPRPCIIPRP
shrunken log2 fold change: -0.394

RRIRHRPPRLPRPRPRPRKPPRP
shrunken log2 fold change: 0.321

RRIRARPPRLPRPRPRPSVEPRP
shrunken log2 fold change: 0.49

RRIRIRPPRLPRPRPRPLEKPRP
shrunken log2 fold change: -0.0295

RRIRQRPPRLPRPRPRPTRCPRP
shrunken log2 fold change: 0.747

RRIRRRPPRLPRPRPRPCNLPRP
shrunken log2 fold change: -0.0686

RRIRYRPPRLPRPRPRPDVIPRP
shrunken log2 fold change: -0.0708

RRIRGRPPRLPRPRPRPYDEPRP
shrunken log2 fold change: 0.0538

RRIRHRPPRLPRPRPRPTGSPRP
shrunken log2 fold change: 0.0528

RRIRDRPPRLPRPRPRPTYDPRP
shrunken log2 fold change: -0.208

RRIRIRPPRLPRPRPRPISHPRP
shrunken log2 fold change: -0.0541

RRIRMRPPRLPRPRPRPQERPRP
shrunken log2 fold change: -0.00224

RRIRQRPPRLPRPRPRPICHPRP
shrunken log2 fold change: -0.14

RRIRMRPPRLPRPRPRPRTYPRP
shrunken log2 fold change: -0.00485

RRIRMRPPRLPRPRPRPATMPRP
shrunken log2 fold change: 0.256

RRIRLRPPRLPRPRPRPMPFPRP
shrunken log2 fold change: -0.0289

RRIRSRPPRLPRPRPRPYTMPRP
shrunken log2 fold change: -0.19

RRIRKRPPRLPRPRPRPPKRPRP
shrunken log2 fold change: 1.15

RRIRSRPPRLPRPRPRPRCHPRP
shrunken log2 fold change: -0.0928

RRIRNRPPRLPRPRPRPHYPPRP
shrunken log2 fold change: -0.465

RRIRRRPPRLPRPRPRPEVVPRP
shrunken log2 fold change: 0.472

RRIRARPPRLPRPRPRPTWVPRP
shrunken log2 fold change: 0.225

RRIRNRPPRLPRPRPRPWDTPRP
shrunken log2 fold change: -0.0124

RRIRDRPPRLPRPRPRPFSFPRP
shrunken log2 fold change: -0.763

RRIRERPPRLPRPRPRPTVCPRP
shrunken log2 fold change: 0.141
